Results reported in the supplement of paper PMC10126150.
± gives the standard deviation of the averaged measurements.

Tested on: ATP
Assay: switch fluorescence ratio, 500 uM ATP over buffer (Cy3 cluster intensity, sum of 5 cycles each) (fold (ratio)); higher = stronger signal-on switching upon ATP binding; sequences stand for … in TCGTCGGCAGCGTCAGATGTGTATAAGAGACAGTTTTTTTTTTTTTTTTTTTTTTTTT…TC
Conditions: aptamer strand: ATP DNA aptamer (quencher-CACCTGGGGGAGTATTGCGGAGGAAGG + anchor), 100 nM annealed; ATP concentration: 500 uM
How it was run: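 Five buffer/ATP imaging cycles were run on Cy3-labelled switching-strand clusters on a modified Illumina MiSeq flow-cell, with NaOH stripping and re-annealing between cycles. In each cycle, clusters annealed to 100 nM quencher-labelled ATP aptamer were imaged in selection buffer, then after 15 min with 500 uM ATP at 22 °C. Per cluster, the fluorescence ratio is summed target-cycle over summed buffer-cycle Cy3 intensity, averaged per switch-domain sequence. Only clusters within 100-1000 RFU were kept.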
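Also: ATP exposure 15 min at 22 °C before imaging.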

Row | Sequence | switch fluorescence ratio
1 | CGGTTATCGC | 1.03 ± 0.052
2 | ATCTTAGGTT | 1.03 ± 0.096
3 | CGCCGAGATT | 1.08 ± 0.058
4 | GGGATGGTGT | 0.962 ± 0.016
5 | TCCCTTTTGG | 1.011 ± 0.0029
6 | GAAGATGGTT | 0.969 ± 0.018
7 | TTTGAAGTTG | 0.992 ± 0.029
8 | GGGGTTATCA | 0.99 ± 0.014
9 | TTGATTCATA | 0.98126 ± 0.00011
10 | GGTTAAAAGG | 1 ± 0.032
11 | TTTATGGCTG | 0.987 ± 0.076
12 | GATAACATGT | 1.02 ± 0.029
13 | TTGACGCAGT | 1.23 ± 0.03
14 | CATGTAGTCT | 1.04 ± 0.013
15 | AAGGGCGCCC | 1.14 ± 0.18
16 | ATTGCGGTTT | 0.991 ± 0.032
17 | TTCCCGAAGT | 1.02 ± 0.04
18 | CGATGCGAAG | 1.02 ± 0.035
19 | AGCGGATTGG | 1.02 ± 0.061
20 | CGGTACCATC | 1.02 ± 0.013
21 | TAAGGTTTGT | 0.988 ± 0.021
22 | ATTATTTATC | 0.985 ± 0.088
23 | GGGGTGATCG | 0.9842 ± 0.0077

Row | Sequence | switch fluorescence ratio
24 | CCGGCTTACG | 1.2 ± 0.1
25 | GGGGACCAAT | 1 ± 0.016
26 | TAATCAGGTA | 1.1 ± 0.02
27 | ATCATTATTG | 1 ± 0.013
28 | CCTCGGGTTA | 1.42 ± 0.038
29 | TGAATATATT | 1.01 ± 0.022
30 | GCTTAAATTT | 1 ± 0.016
31 | TTCCTTGGTC | 1.18 ± 0.24
32 | TTTCTGGGGC | 1.08 ± 0.08
33 | TGGGGGGCTT | 0.989 ± 0.023
34 | AATTTTTAAG | 0.997 ± 0.011
35 | GAAGCTGTTT | 1.026 ± 0.0042
36 | AGAAATTGGT | 1.02 ± 0.029
37 | TTATGGTGGG | 0.981 ± 0.015
38 | GGGGGCTTGG | 0.998 ± 0.032
39 | TGGAGGGGAT | 1.02 ± 0.075
40 | TTGGTTATTT | 1 ± 0.045
41 | TATCCAAGTT | 0.999 ± 0.013
42 | TTTCGGGGAC | 1.43 ± 0.62
43 | GCTTGATCCA | 1.01 ± 0.018
44 | CTGAGTATGC | 1.05 ± 0.026
45 | TTAGGAAGGT | 1 ± 0.021
46 | ATCGGGAGGA | 1 ± 0.029

Row | Sequence | switch fluorescence ratio
47 | CTGATGCGGG | 1.06 ± 0.062
48 | GGGGTTGTGC | 0.971 ± 0.035
49 | TTTTTGCGAA | 1.033 ± 0.0011
50 | AACCCGCCTT | 1.07 ± 0.067
51 | GACATGAAGG | 1 ± 0.015
52 | TATTATTGCG | 0.988 ± 0.011
53 | CGTTAATCTA | 0.987 ± 0.026
54 | TGAAAGGAAT | 1.13 ± 0.19
55 | TTGGAGGCGG | 0.984 ± 0.066
56 | TTCAGTTTTA | 1.017 ± 0.0035
57 | CTTTCTCAA | 1.32 ± 0.44
58 | GGTTTAAGTC | 1.06 ± 0.029
59 | CGGCAGCTGA | 1 ± 0.011
60 | GCATATTTTG | 0.994 ± 0.029
61 | ATTTATGGTG | 0.973 ± 0.031
62 | TACTTGTGTT | 1.02 ± 0.046
63 | CATCTAAAGA | 1.005 ± 0.0067
64 | AGAAAAAAAG | 1.02 ± 0.03
65 | ATGTAGGGGG | 0.988 ± 0.013
66 | TGATGGCTGC | 1.04 ± 0.013
67 | TATTCGGGGG | 1.04 ± 0.078
68 | CTTGGTTACG | 0.9738 ± 0.0093
69 | TGTATAAAAA | 0.9906 ± 0.0039

Row | Sequence | switch fluorescence ratio
70 | TTTTAGATTT | 0.995 ± 0.026
71 | TGTAGTATGT | 1 ± 0.012
72 | ATGTGTTTTT | 0.98 ± 0.036
73 | TTACTATTCT | 1.001 ± 0.0063
74 | ATTCGGGTTT | 1.05 ± 0.066
75 | TCAGTAAATT | 0.965 ± 0.055
76 | GGATTTCCAG | 0.999 ± 0.03
77 | ATGTGCATGT | 0.986 ± 0.024
78 | GTATGATTTA | 0.989 ± 0.037
79 | CCTGCAAACA | 2.22 ± 0.17
80 | AAGTTGTGGC | 1.01 ± 0.017
81 | AACGCTGAGG | 1.01 ± 0.009
82 | TTTGTGCGTC | 0.977 ± 0.055
83 | CGGGCCACGA | 1.04 ± 0.026
84 | TTTGGAATGG | 0.991 ± 0.054
85 | ATTTGGATGG | 0.985 ± 0.023
86 | AAGATGTAGT | 0.994 ± 0.017
87 | TTGGTTTGCC | 0.982 ± 0.029
88 | GGGGCGGTCT | 0.9667 ± 0.004
89 | TGCTGGCGCG | 1 ± 0.033
90 | CGGGCGGCAG | 1.04 ± 0.027
91 | ACTTCAGATT | 0.995 ± 0.012
92 | ATTTACTTCT | 1.04 ± 0.015

Row | Sequence | switch fluorescence ratio
93 | TTTTGCTGCC | 1.027 ± 0.002
94 | ACGTGTGAC | 1 ± 0.023
95 | ATAATCATTT | 1.02 ± 0.021
96 | GCCTGCTGGA | 1.002 ± 0.0023
97 | CCAGGTCATA | 1.07 ± 0.011
98 | AGAAAAAAGC | 0.989 ± 0.015
99 | GGCACAGGGG | 1.91 ± 0.17
100 | TCGGGCAGGT | 1.06 ± 0.064
101 | GCAGGGATGA | 0.994 ± 0.0052
102 | GATGATGTGT | 1.02 ± 0.031
103 | ACGGTATGTG | 1.03 ± 0.033
104 | CGTTCGATAT | 1.03 ± 0.03
105 | CCAGTATGTG | 1.04 ± 0.054
106 | AATGTTCGGT | 0.989 ± 0.011
107 | GGAAGGGCGG | 1.01 ± 0.048
108 | TGTCAGGGGG | 1.01 ± 0.023
109 | AAATGCCGAT | 0.992 ± 0.015
110 | TTACGGCAGG | 1.13 ± 0.092
111 | AGACGGGCAC | 1.074 ± 0.0063
112 | GGGTTGCCGA | 1.09 ± 0.19
113 | CTGGGGGGTC | 1.24 ± 0.41
114 | GGGCCGGGTT | 1.01 ± 0.021
115 | AAAAGATTGT | 1.043 ± 0.0085

Row | Sequence | switch fluorescence ratio
116 | TCAGTGGGGC | 0.9987 ± 0.0093
117 | TTTAATAAAA | 0.988 ± 0.013
118 | CCGTTTGGGA | 0.998 ± 0.032
119 | CGGGATAGAT | 1 ± 0.039
120 | TGAATCCGGG | 1 ± 0.038
121 | TTAAGATAGG | 1.01 ± 0.025
122 | GGAGGTAGGG | 0.99915 ± 0.00057
123 | AAATAGGGCT | 1.004 ± 0.0097
124 | ATTTGACGGG | 1.03 ± 0.047
125 | TTAAATTTTA | 1.01 ± 0.019
126 | TTTGATCAGC | 0.983 ± 0.031
127 | AAATCGTCGG | 0.991 ± 0.024
128 | TTGTGCTGCC | 1.05 ± 0.027
129 | CTTATTATGG | 0.975 ± 0.021
130 | TTACTTGGCC | 0.9818 ± 0.0021
131 | TTTGTGATCA | 0.998 ± 0.032
132 | GGAATGGTCG | 0.977 ± 0.13
133 | TTTAAATCTT | 1.06 ± 0.022
134 | TAAAGGCGGT | 0.983 ± 0.042
135 | ATATTGACGG | 1.09 ± 0.12
136 | GTGTAGATTA | 1.02 ± 0.014
137 | TTTTTGATGA | 1.02 ± 0.015
138 | TTCGGATTGG | 1.01 ± 0.0061

Row | Sequence | switch fluorescence ratio
139 | ACGAAGGGTC | 0.9941 ± 0.0098
140 | TCTTATGGGG | 0.994 ± 0.019
141 | GGGACGGAAA | 1.11 ± 0.16
142 | CACGGGGTTT | 0.954 ± 0.011
143 | TATGGGTAAT | 0.975 ± 0.016
144 | ATCAACTTAT | 1.02 ± 0.044
145 | GAGTTGTGCG | 0.9969 ± 0.001
146 | AAGTACTCCA | 1.335 ± 0.0082
147 | CAGCTAACTT | 1.0399 ± 0.00052
148 | TCAGACAGCG | 1.03 ± 0.053
149 | GTGGGAGCGG | 1.02 ± 0.042
150 | TGTGTGTTGG | 0.993 ± 0.024
151 | TTTTTTGAT | 1.01 ± 0.032
152 | TGGTGAGATC | 0.965 ± 0.0039
153 | TTGTGTCGGG | 0.998 ± 0.02
154 | CGGGGCATTG | 1.013 ± 0.0046
155 | TTACCAGCTT | 1.02 ± 0.063
156 | TATTTAAACG | 1 ± 0.011
157 | GGTCCGCATA | 2.82 ± 1.2
